Self-aminoacylation data for 25 sequences are collected here from the supplement of paper PMC9233669.

Data set [1] relates to biotinyl-Leu-oxazolone. Briefly: self-aminoacylation, catalytic enhancement (BLO) (fold over background); higher = more active; k-Seq, kA / k0A0; sequences stand for … in GGGAAUGGAUCCACAUCUACGAAUUC…UUCACUGCAGACUUGACGAAGCUG
In outline:
(§1)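 Each biotinyl-aminoacyl-oxazolone, at 2–1250 μM, was incubated with mutagenized RNA pools (0.43 μM) carrying a 21-nt variable region. The 50 μL reactions contained HEPES/NaCl/KCl/MgCl2/CaCl2 buffer with 5% acetonitrile at pH 6.9–7.0 and ran for 90 minutes at room temperature. After streptavidin capture, RNA was measured by qPCR in triplicate and by Illumina sequencing, and catalytic enhancement was calculated as median kA over the uncatalyzed rate from a pseudo-first-order fit of per-sequence fraction reacted.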

In data set [2] the test system is biotinyl-Val-oxazolone. Briefly: self-aminoacylation, catalytic enhancement (BVO) (fold over background); higher = more active; k-Seq, kA / k0A0; sequences stand for … in GGGAAUGGAUCCACAUCUACGAAUUC…UUCACUGCAGACUUGACGAAGCUG
Put shortly: as §1

Data set [3] concerns biotinyl-Met-oxazolone. Description: self-aminoacylation, catalytic enhancement (BMO) (fold over background); higher = more active; k-Seq, kA / k0A0; sequences stand for … in GGGAAUGGAUCCACAUCUACGAAUUC…UUCACUGCAGACUUGACGAAGCUG
In outline:
as §1

Data set [4] concerns biotinyl-Ile-oxazolone. Description: self-aminoacylation, catalytic enhancement (BIO) (fold over background); higher = more active; k-Seq, kA / k0A0; sequences stand for … in GGGAAUGGAUCCACAUCUACGAAUUC…UUCACUGCAGACUUGACGAAGCUG
In outline: as §1

The test system of data set [5] is biotinyl-Phe-oxazolone. Description: self-aminoacylation, catalytic enhancement (BFO) (fold over background); higher = more active; k-Seq, kA / k0A0; sequences stand for … in GGGAAUGGAUCCACAUCUACGAAUUC…UUCACUGCAGACUUGACGAAGCUG
Put shortly:
as §1

The test system of data set [6] is biotinyl-Trp-oxazolone. Briefly: self-aminoacylation, catalytic enhancement (BWO) (fold over background); higher = more active; k-Seq, kA / k0A0; sequences stand for … in GGGAAUGGAUCCACAUCUACGAAUUC…UUCACUGCAGACUUGACGAAGCUG
Put shortly:
as §1

This sample holds only a part of the variants without activity.

For “GCACACUUCAAGAAAUCGGUC [Fam1B.1 aminoacylation ribozyme variant]”, the self-aminoacylation in data set [1] was determined as 2.21; in data set [2] it was 1.59; in data set [3] it was 1.87; in data set [4], 1.97; in data set [5], 7.74; in data set [6] it was 8.15.

In the case of “GUUCACCUAGGACAUCGGGUG [Fam2.2 aminoacylation ribozyme variant]”, the self-aminoacylation worked out at 4.61 in data set [1]; 3.56 in data set [2]; 3.24 in data set [3]; 3.61 in data set [4]; 16.3 in data set [5]; 5.67 in data set [6].

In the case of “CGACACUUCAAACAAUCGGUC [Fam1B.1 aminoacylation ribozyme variant]”, the self-aminoacylation came out at 1.71 in data set [1]; 1.64 in data set [2]; 1.31 in data set [3]; 1.23 in data set [4]; 22.9 in data set [5]; 12.5 in data set [6].

With “AUUACCCUGGACAUCGAGUUA [Fam2.1 aminoacylation ribozyme variant]”, the self-aminoacylation in data set [1] turned out to be 0.772; in data set [2], 0.75; in data set [3], 0.682; in data set [4], 0.805; in data set [5], 0.728; in data set [6] it was 0.639.

For the sequence “CAACUUCAGACAAUCGGUCUG [Fam1A.1 aminoacylation ribozyme variant]”, the self-aminoacylation was found to be 1.08 in data set [1]; 1.09 in data set [2]; 0.989 in data set [3]; 1.09 in data set [4]; 2.46 in data set [5]; 1.43 in data set [6].

For “GUUCAACUAGGUCAUCGGGUG [Fam2.2 aminoacylation ribozyme variant]”, the self-aminoacylation in data set [1] amounted to 6.94; in data set [2], 4.16; in data set [3], 5.04; in data set [4], 4.28; in data set [5], 42.6; in data set [6] it was 6.75.

For the sequence “AGGUUUGCUAAUAGACGCAAG [Fam3.1 aminoacylation ribozyme variant]”, the self-aminoacylation in data set [1] was 0.594; in data set [2], 0.752; in data set [3] it was 0.529; in data set [4], 0.608; in data set [5] it was 0.835; in data set [6], 0.609.

As for “AUUCACCUAGUUCAUCCGGUG [Fam2.2 aminoacylation ribozyme variant]”, the self-aminoacylation in data set [1] turned out to be 3.89; in data set [2], 2.52; in data set [3], 3.23; in data set [4], 3.1; in data set [5] it was 21.9; in data set [6], 3.54.

As to “AUUCACAUAGGUCAUCAGGUG [Fam2.2 aminoacylation ribozyme variant]”, the self-aminoacylation in data set [1] was 1.63; in data set [2], 1.4; in data set [3] it was 1.41; in data set [4], 1.2; in data set [5], 1.62; in data set [6], 1.85.

With “AUUCGCCUAGGUCAUCGGGUA [Fam2.2 aminoacylation ribozyme variant]”, the self-aminoacylation in data set [1] stood at 68.8; in data set [2], 23.4; in data set [3] it was 46.9; in data set [4] it was 25.1; in data set [5] it was 391; in data set [6], 35.3.

As for “UUUACUCUGGUCAUCGAGUGA [Fam2.1 aminoacylation ribozyme variant]”, the self-aminoacylation in data set [1] is 5.43; in data set [2] it was 3.58; in data set [3], 5.53; in data set [4] it was 3.99; in data set [5] it was 7.42; in data set [6] it was 6.74.

“CCACAUUUUAAGCAAUCGGUC [Fam1B.1 aminoacylation ribozyme variant]”: the self-aminoacylation in data set [1] came out at 1.29; in data set [2] it was 1.24; in data set [3], 0.901; in data set [4], 1.33; in data set [5], 1.19; in data set [6] it was 0.864.

Take “CUACUUCACAAAAUCGGUCUG [Fam1A.1 aminoacylation ribozyme variant]”: the self-aminoacylation in data set [1] was 0.823; in data set [2] it was 0.831; in data set [3] it was 0.863; in data set [4], 0.985; in data set [5] it was 0.608; in data set [6], 0.739.

For “AUUACCCGGGUCAUUGAGUGA [Fam2.1 aminoacylation ribozyme variant]”, the self-aminoacylation in data set [1] is 8.98; in data set [2], 4.83; in data set [3] it was 9.41; in data set [4], 4.35; in data set [5], 56.8; in data set [6], 10.8.

Take “AUUCACCUAGGUCAUGGGGUA [Fam2.2 aminoacylation ribozyme variant]”: the self-aminoacylation worked out at 1.88 in data set [1]; 1.83 in data set [2]; 2.13 in data set [3]; 1.96 in data set [4]; 1 in data set [5]; 1.56 in data set [6].

For “CUACUUCAAGCUAUCGGUCUG [Fam1A.1 aminoacylation ribozyme variant]”, the self-aminoacylation in data set [1] worked out at 0.689; in data set [2], 0.892; in data set [3], 0.942; in data set [4] it was 0.839; in data set [5] it was 0.617; in data set [6] it was 0.43.

For “ACACCCUUCAAGCAAUCGGUC [Fam1B.1 aminoacylation ribozyme variant]”, the self-aminoacylation in data set [1] was 0.984; in data set [2] it was 1.02; in data set [3], 0.897; in data set [4], 1.01; in data set [5], 2.12; in data set [6] it was 1.59.

As to “AUUCAUCUAGGUCAUUGGGUG [Fam2.2 aminoacylation ribozyme variant]”, the self-aminoacylation in data set [1] is 4.98; in data set [2], 2.77; in data set [3], 4.21; in data set [4], 2.67; in data set [5], 26.7; in data set [6] it was 4.24.

Turning to “AUUCACCUAGGUCGUCCGGUG [Fam2.2 aminoacylation ribozyme variant]”, the self-aminoacylation in data set [1] turned out to be 3.89; in data set [2], 2.35; in data set [3], 3.34; in data set [4] it was 2.52; in data set [5], 14.4; in data set [6] it was 2.39.

For “CUACAUCAAACAAUCGGCCUG [Fam1A.1 aminoacylation ribozyme variant]”, the self-aminoacylation in data set [1] was determined as 1.41; in data set [2], 1.25; in data set [3], 1.35; in data set [4], 1.25; in data set [5] it was 2.89; in data set [6], 2.21.

On to “UUUCACCUAGGCCAUCGGGUG [Fam2.2 aminoacylation ribozyme variant]”, for which the self-aminoacylation came to 4.34 in data set [1]; 4 in data set [2]; 3.71 in data set [3]; 3.27 in data set [4]; 20.8 in data set [5]; 4.57 in data set [6].

For the sequence “CCACUACAAACAAUCGGUCUG [Fam1A.1 aminoacylation ribozyme variant]”, the self-aminoacylation stood at 1.14 in data set [1]; 1.12 in data set [2]; 0.764 in data set [3]; 1.02 in data set [4]; 1.38 in data set [5]; 0.734 in data set [6].

“CUUCACCUAGGUCAUCGGGUG [Fam2.2 aminoacylation ribozyme variant]”: the self-aminoacylation in data set [1] was determined as 9; in data set [2], 5.18; in data set [3] it was 7.51; in data set [4], 4.63; in data set [5], 34.6; in data set [6] it was 6.65.

“UUACUUCAAGCAAUCGGUCUG [Fam1A.1 aminoacylation ribozyme variant]”: the self-aminoacylation in data set [1] was 1.26; in data set [2], 0.95; in data set [3], 1.12; in data set [4] it was 0.993; in data set [5], 5.97; in data set [6] it was 3.89.

As to “AUUCACCUAGGUCAUUGUGUG [Fam2.2 aminoacylation ribozyme variant]”, the self-aminoacylation was 1.03 in data set [1]; 0.835 in data set [2]; 0.898 in data set [3]; 0.871 in data set [4]; 0.805 in data set [5]; 0.463 in data set [6].
